Tested on: Escherichia coli TOP10
Experiment: shrunken log2 fold change of peptide-encoding DNA abundance (4.5 h post-induction vs induction); higher = less antimicrobial activity (less host growth inhibition)
Details: time post-induction: 4.5 h; library: site-saturation at positions 5, 18, 19, 20
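Note: peptides expressed intracellularly from a pBAD plasmid library in pooled LB shake-flask culture, induced with 0.3% L-arabinose, DNA abundance read by NGS, three biological replicates, DESeq2 with apeglm shrinkage.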

## RRIRWRPPRLPRPRPRPWNVPRP
  shrunken log2 fold change: 0.0207

## RRIRVRPPRLPRPRPRPKVVPRP
  shrunken log2 fold change: 0.174

## RRIRCRPPRLPRPRPRPGWVPRP
  shrunken log2 fold change: 0.513

## RRIRYRPPRLPRPRPRPFYTPRP
  shrunken log2 fold change: -1.19

## RRIRDRPPRLPRPRPRPEIWPRP
  shrunken log2 fold change: 0.162

## RRIRKRPPRLPRPRPRPDSLPRP
  shrunken log2 fold change: 0.00855

## RRIRQRPPRLPRPRPRPPTQPRP
  shrunken log2 fold change: 0.0976

## RRIRMRPPRLPRPRPRPSFNPRP
  shrunken log2 fold change: -0.535

## RRIRIRPPRLPRPRPRPGTLPRP
  shrunken log2 fold change: 0.0164

## RRIRFRPPRLPRPRPRPCHRPRP
  shrunken log2 fold change: -0.113

## RRIRDRPPRLPRPRPRPLQVPRP
  shrunken log2 fold change: 0.0133

## RRIRMRPPRLPRPRPRPHSHPRP
  shrunken log2 fold change: 0.0536

## RRIRPRPPRLPRPRPRPCYIPRP
  shrunken log2 fold change: -0.795

## RRIRQRPPRLPRPRPRPHQKPRP
  shrunken log2 fold change: -0.0904

## RRIRWRPPRLPRPRPRPGNVPRP
  shrunken log2 fold change: -0.127

## RRIRPRPPRLPRPRPRPFCTPRP
  shrunken log2 fold change: -0.00789

## RRIRFRPPRLPRPRPRPRPQPRP
  shrunken log2 fold change: 0.684

## RRIRHRPPRLPRPRPRPQIHPRP
  shrunken log2 fold change: -0.46

## RRIRNRPPRLPRPRPRPPEDPRP
  shrunken log2 fold change: 0.174

## RRIRSRPPRLPRPRPRPEGLPRP
  shrunken log2 fold change: -0.0431

## RRIRGRPPRLPRPRPRPYISPRP
  shrunken log2 fold change: -0.325

## RRIRSRPPRLPRPRPRPDLLPRP
  shrunken log2 fold change: -0.0424

## RRIRDRPPRLPRPRPRPKGPPRP
  shrunken log2 fold change: -0.0184

## RRIRFRPPRLPRPRPRPVVQPRP
  shrunken log2 fold change: -0.119

## RRIRLRPPRLPRPRPRPKEFPRP
  shrunken log2 fold change: -0.0126

## RRIRLRPPRLPRPRPRPKPTPRP
  shrunken log2 fold change: 0.15

## RRIRYRPPRLPRPRPRPNEMPRP
  shrunken log2 fold change: 0.0143

## RRIRVRPPRLPRPRPRPYPIPRP
  shrunken log2 fold change: -0.0204

## RRIRHRPPRLPRPRPRPPCDPRP
  shrunken log2 fold change: -0.22

## RRIRRRPPRLPRPRPRPDHGPRP
  shrunken log2 fold change: -0.146

## RRIRARPPRLPRPRPRPFEPPRP
  shrunken log2 fold change: 0.276

## RRIRFRPPRLPRPRPRPCAKPRP
  shrunken log2 fold change: -0.0688

## RRIRSRPPRLPRPRPRPEMQPRP
  shrunken log2 fold change: 0.0419

## RRIRWRPPRLPRPRPRPQSMPRP
  shrunken log2 fold change: 0.0679

## RRIRQRPPRLPRPRPRPWMWPRP
  shrunken log2 fold change: -0.457

## RRIRCRPPRLPRPRPRPHQRPRP
  shrunken log2 fold change: -0.422

## RRIRQRPPRLPRPRPRPVSHPRP
  shrunken log2 fold change: -0.0425

## RRIRFRPPRLPRPRPRPRYDPRP
  shrunken log2 fold change: -0.408

## RRIRRRPPRLPRPRPRPWWYPRP
  shrunken log2 fold change: -0.303

## RRIRIRPPRLPRPRPRPRRDPRP
  shrunken log2 fold change: -0.108

## RRIRFRPPRLPRPRPRPNRTPRP
  shrunken log2 fold change: -0.0619

## RRIRMRPPRLPRPRPRPQRPPRP
  shrunken log2 fold change: 0.389

## RRIRPRPPRLPRPRPRPDGRPRP
  shrunken log2 fold change: 0.101

## RRIRCRPPRLPRPRPRPWMRPRP
  shrunken log2 fold change: 0.19

## RRIRGRPPRLPRPRPRPWTYPRP
  shrunken log2 fold change: 0.0864

## RRIRIRPPRLPRPRPRPFWYPRP
  shrunken log2 fold change: 0.00745

## RRIRARPPRLPRPRPRPIVKPRP
  shrunken log2 fold change: 0.0456

## RRIRTRPPRLPRPRPRPPVFPRP
  shrunken log2 fold change: 0.346

## RRIRWRPPRLPRPRPRPPCTPRP
  shrunken log2 fold change: 0.124

## RRIRSRPPRLPRPRPRPLCSPRP
  shrunken log2 fold change: 0.0443

## RRIRRRPPRLPRPRPRPLAQPRP
  shrunken log2 fold change: 0.498

## RRIRNRPPRLPRPRPRPLVLPRP
  shrunken log2 fold change: -0.171

## RRIRKRPPRLPRPRPRPFLKPRP
  shrunken log2 fold change: 0.0443

## RRIRKRPPRLPRPRPRPEIYPRP
  shrunken log2 fold change: -0.00723

## RRIRYRPPRLPRPRPRPCKKPRP
  shrunken log2 fold change: -0.0222

## RRIRMRPPRLPRPRPRPMMIPRP
  shrunken log2 fold change: -0.025

## RRIRMRPPRLPRPRPRPIHPPRP
  shrunken log2 fold change: -0.0207

## RRIRFRPPRLPRPRPRPKTYPRP
  shrunken log2 fold change: -0.578

## RRIRTRPPRLPRPRPRPMCWPRP
  shrunken log2 fold change: -0.0846

## RRIRKRPPRLPRPRPRPMKIPRP
  shrunken log2 fold change: 0.291

## RRIRFRPPRLPRPRPRPRGRPRP
  shrunken log2 fold change: 0.454

## RRIRKRPPRLPRPRPRPPYPPRP
  shrunken log2 fold change: 0.0247

## RRIRDRPPRLPRPRPRPQPWPRP
  shrunken log2 fold change: 0.11

## RRIRCRPPRLPRPRPRPGKHPRP
  shrunken log2 fold change: -0.423

## RRIRMRPPRLPRPRPRPNLEPRP
  shrunken log2 fold change: 0.284

## RRIRPRPPRLPRPRPRPQNHPRP
  shrunken log2 fold change: 0.181

## RRIRARPPRLPRPRPRPKIYPRP
  shrunken log2 fold change: -0.161

## RRIRVRPPRLPRPRPRPCVPPRP
  shrunken log2 fold change: 0.124

## RRIRPRPPRLPRPRPRPARPPRP
  shrunken log2 fold change: 0.626

## RRIRLRPPRLPRPRPRPITGPRP
  shrunken log2 fold change: -0.0243

## RRIRNRPPRLPRPRPRPEMKPRP
  shrunken log2 fold change: -0.188

## RRIRGRPPRLPRPRPRPLVTPRP
  shrunken log2 fold change: 1.2

## RRIRPRPPRLPRPRPRPRNGPRP
  shrunken log2 fold change: -0.0237

## RRIRARPPRLPRPRPRPRKLPRP
  shrunken log2 fold change: 0.424

## RRIRKRPPRLPRPRPRPDYCPRP
  shrunken log2 fold change: 0.0953

## RRIRLRPPRLPRPRPRPQTSPRP
  shrunken log2 fold change: -0.106

## RRIRVRPPRLPRPRPRPMRRPRP
  shrunken log2 fold change: 0.392

## RRIRNRPPRLPRPRPRPKQNPRP
  shrunken log2 fold change: 0.0598

## RRIRWRPPRLPRPRPRPTFHPRP
  shrunken log2 fold change: 0.00721

## RRIRLRPPRLPRPRPRPLCLPRP
  shrunken log2 fold change: -0.392

## RRIRNRPPRLPRPRPRPYSPPRP
  shrunken log2 fold change: -0.276

## RRIRFRPPRLPRPRPRPNLPPRP
  shrunken log2 fold change: -0.454

## RRIRVRPPRLPRPRPRPHHLPRP
  shrunken log2 fold change: -0.24

## RRIRKRPPRLPRPRPRPAVDPRP
  shrunken log2 fold change: -0.0502

## RRIRTRPPRLPRPRPRPGMAPRP
  shrunken log2 fold change: -0.0805

## RRIRNRPPRLPRPRPRPKPMPRP
  shrunken log2 fold change: 0.375

## RRIRDRPPRLPRPRPRPCQAPRP
  shrunken log2 fold change: -0.0133

## RRIRVRPPRLPRPRPRPSLSPRP
  shrunken log2 fold change: -0.303

## RRIRPRPPRLPRPRPRPNVAPRP
  shrunken log2 fold change: -0.215

## RRIRFRPPRLPRPRPRPFWCPRP
  shrunken log2 fold change: -0.27

## RRIRHRPPRLPRPRPRPAIYPRP
  shrunken log2 fold change: -0.798

## RRIRIRPPRLPRPRPRPIYPPRP
  shrunken log2 fold change: -0.304

## RRIRLRPPRLPRPRPRPINLPRP
  shrunken log2 fold change: -0.573

## RRIRDRPPRLPRPRPRPKYKPRP
  shrunken log2 fold change: -0.739

## RRIRFRPPRLPRPRPRPIHMPRP
  shrunken log2 fold change: -0.491

## RRIRRRPPRLPRPRPRPIHQPRP
  shrunken log2 fold change: -0.136

## RRIRFRPPRLPRPRPRPRFYPRP
  shrunken log2 fold change: -0.0297

## RRIRLRPPRLPRPRPRPWVNPRP
  shrunken log2 fold change: -0.271

## RRIRWRPPRLPRPRPRPIQFPRP
  shrunken log2 fold change: -0.0539

## RRIRKRPPRLPRPRPRPHMIPRP
  shrunken log2 fold change: -0.335

## RRIRGRPPRLPRPRPRPDMKPRP
  shrunken log2 fold change: 0.00543

## RRIRSRPPRLPRPRPRPRSVPRP
  shrunken log2 fold change: 0.0603

## RRIRDRPPRLPRPRPRPHYFPRP
  shrunken log2 fold change: -0.119

## RRIRSRPPRLPRPRPRPLLHPRP
  shrunken log2 fold change: -0.0854

## RRIRTRPPRLPRPRPRPLMRPRP
  shrunken log2 fold change: 0.216

## RRIRFRPPRLPRPRPRPCRDPRP
  shrunken log2 fold change: -0.274

## RRIRARPPRLPRPRPRPLHTPRP
  shrunken log2 fold change: 0.0174

## RRIRLRPPRLPRPRPRPRMFPRP
  shrunken log2 fold change: -0.0408

## RRIRFRPPRLPRPRPRPKYEPRP
  shrunken log2 fold change: -0.063

Reference: the supplement of paper PMC9112550, “Optimization of the antimicrobial peptide Bac7 by deep mutational scanning” (BMC Biology, 2022)
